Earlier results on two compounds are cited in patent publication US20160354391A1, “USE IN SINGLE PILL/TABLET/CAPSULE OF MINOCYCLINE, FLUCONAZOLE AND ATORVASTATIN IN THE TREATMENT OF MULTIPLE SCLEROSIS” (priority 2014, published 2016).

The conditions of series [1]: in vivo.

Take Alemtuzumab: the “patients who develop thyroid autoimmune diseases” value was “approximately 40%”.
On to `C/C(O)=C(\C#N)C(=O)Nc1ccc(C(F)(F)F)cc1` [Teriflunomide], for which the elimination time result in series [1] is reported as “up to 2 years”.
